Results on eight molecules are retold here after PMC3024583.

Where two headings read alike, the source gives them in different places.

What all share (assay): EMSA
For series [1], the target named is T1, CSL (CBF1);Notch1 RAMANK wild-type;MAML1 (human?;human;human?, UniProt Q06330;P46531;Q92585 23-449;1760-2126;13-74, ||).
In series [2] the target is T1, CSL (CBF1);Notch1 RAMANK wild-type;MAML1. The source holds these as a separate data set.
Series [3] shares this target. The source holds these as a separate data set.
Series [4] shares this target. The source holds these as a separate data set.
For series [5] the target is unchanged. The source holds these as a separate data set.
The target of series [6] is CSL (CBF1);Notch1 RAMANK R1985A;MAML1 (human?;human;human?, UniProt Q06330;P46531;Q92585 23-449;1760-2126;13-74, |R1984A|).
Sequence of CSL (CBF1);Notch1 RAMANK R1985A;MAML1 (Q06330 23-449, chain 1 of 3): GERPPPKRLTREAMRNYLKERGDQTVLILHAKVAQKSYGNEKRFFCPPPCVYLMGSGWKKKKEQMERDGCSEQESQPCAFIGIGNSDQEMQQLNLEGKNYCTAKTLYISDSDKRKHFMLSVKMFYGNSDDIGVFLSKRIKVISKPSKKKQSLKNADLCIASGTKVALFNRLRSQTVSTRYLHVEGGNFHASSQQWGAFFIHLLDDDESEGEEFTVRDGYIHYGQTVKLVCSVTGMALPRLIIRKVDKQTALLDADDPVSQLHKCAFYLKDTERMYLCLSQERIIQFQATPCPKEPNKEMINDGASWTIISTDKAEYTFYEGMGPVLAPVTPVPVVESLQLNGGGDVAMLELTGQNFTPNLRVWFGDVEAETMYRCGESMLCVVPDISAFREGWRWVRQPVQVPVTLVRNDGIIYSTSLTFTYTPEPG
Sequence of CSL (CBF1);Notch1 RAMANK R1985A;MAML1 (P46531 1760-2126 R1984A, chain 2 of 3): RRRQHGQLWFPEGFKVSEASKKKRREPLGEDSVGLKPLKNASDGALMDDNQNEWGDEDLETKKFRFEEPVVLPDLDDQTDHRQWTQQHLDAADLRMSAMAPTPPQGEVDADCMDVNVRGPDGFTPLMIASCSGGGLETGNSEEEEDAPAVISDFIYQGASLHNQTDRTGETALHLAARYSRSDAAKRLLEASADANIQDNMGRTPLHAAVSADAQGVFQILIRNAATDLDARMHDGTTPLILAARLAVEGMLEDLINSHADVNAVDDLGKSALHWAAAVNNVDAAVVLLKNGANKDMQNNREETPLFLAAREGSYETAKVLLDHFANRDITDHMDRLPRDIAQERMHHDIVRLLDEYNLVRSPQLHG
Sequence of CSL (CBF1);Notch1 RAMANK R1985A;MAML1 (Q92585 13-74, chain 3 of 3): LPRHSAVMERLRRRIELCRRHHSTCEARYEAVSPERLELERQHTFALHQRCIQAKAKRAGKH
In series [7] the target is T1, CSL (CBF1);Notch1 RAMANK wild-type;MAML1. The source holds these as a separate data set.

T1 sequence (Q06330 23-449, chain 1 of 3): as the sequence (Q06330 23-449, chain 1 of 3) above
T1 sequence (P46531 1760-2126, chain 2 of 3): as the sequence (P46531 1760-2126 R1984A, chain 2 of 3) above, with A225R counted along it
T1 sequence (Q92585 13-74, chain 3 of 3): as the sequence (Q92585 13-74, chain 3 of 3) above

B1: 17bp SPS (CUL1) (dsDNA)
DNA 1: GAATTACGTGGGAATTATAAATAAATTACTCTTCACACTCTTATCC
DNA 2: GGATAAGAGTGTGAAGAGTAATTTATTTATAATTCCCACGTAATTC
On to B1, for which, in series [1], the binding result is listed as “binds”.

B2: 15bp SPS (SYT14) (dsDNA)
DNA 1: GCCAAACATGGGAAATTGCTGCTATTCTTTTCCCACTACAGCC
DNA 2: GGCTGTAGTGGGAAAAGAATAGCAGCAATTTCCCATGTTTGGC
Regarding B2, the binding result in series [2] is on record as “binds”.

B3: FJX1 SPS (dsDNA)
DNA 1: GGACCTGTGAATCGCGCCCACCGGAGGGTCTCACAAGC
DNA 2: GCTTGTGAGACCCTCCGGTGGGCGCGATTCACAGGTCC
Turning to B3, the binding result in series [3] is “binds”.

B4: HES5_E_long human (dsDNA)
DNA 1: GCGGAGTGTGGGAACGGCCGCGGCGCCCGGACTCCAGGCGCCAGGCCGC
DNA 2: GCGGCCTGGCGCCTGGAGTCCGGGCGCCGCGGCCGTTCCCACACTCCGC
On to B4, for which the binding result in series [4] was “binds”.

B5: Hes5_E_long mouse (dsDNA)
DNA 1: GCCGAGTGTGGGAACGGCCGCGGCGCCCGGACCCCAGGCGCCGGGCCGC
DNA 2: GCGGCCCGGCGCCTGGGGTCCGGGCGCCGCGGCCGTTCCCACACTCGGC
Take B5: the binding result in series [4] is on record as “binds”.

B6: HES4 SPS (dsDNA)
DNA 1: GGCGAGTGTGGGAAAGAATGCGGAGCCGGGTTCACACACCCCGCGG
DNA 2: CCGCGGGGTGTGTGAACCCGGCTCCGCATTCTTTCCCACACTCGCC
Consider B6, for which the binding result in series [3] is reported as “binds”.

B7: HES1 SPS (dsDNA)
DNA 1: AGTTACTGTGGGAAAGAAAGTTTGGGAAGTTTCACACGAGCCGTTC
DNA 2: GAACGGCTCGTGTGAAACTTCCCAAACTTTCTTTCCCACAGTAACT
For B7, the binding result in series [5] is reported as “binds”.

B8: Single-site control (dsDNA)
DNA 1: GGAAACACGCCGTGGGAAAAAATTTGGC
DNA 2: GCCAAATTTTTTCCCACGGCGTGTTTCC
For the molecule B8, the binding result in series [6] and in series [7] was “binds” throughout.
